Data published in US20090291083A1, “BARB4 TARGET, ANTIBODY DESIGNATED BARB4, BARB4 RELATED ANTIBODIES, AND METHODS OF MAKING AND USING SAME” (PATRYS LIMITED, priority 2008, published 2009).

Experiments:
[1] = tested on: Malignant Tissues: Breast; assay: Immunohistochemistry (IHC) with biotinylated BARB4 on malignant tissue; type: binding, human; conditions: positive/negative
Protocol: (§1) Immunohistochemistry with human IgG on human tissue naturally results in high background staining. Accordingly, BARB4 was labeled with biotin to reduce background.
(§2) BARB4 antibody and an unrelated commercial IgG control (Chrompure IgG, Dianova) where labelled with “EZ-Link Maleimide-PEO Solid Phase Biotinylation Kit” from Pierce (Cat-# 21930) and Immunohistochemistry was initiated on different tumor tissue. Parrafin embedded tissue was first deparaffinized by treatment with Xylene 1 for 5 min, Xylene 2 for 5 min, followed by 100% Ethanol 1 for 5 min, 100% Ethanol 2 for 5 min, 70 ml Methanol+500 μl H2O2 for 7 min, 90% Ethanol 1 for 3 min, 90% Ethanol 2 for 3 min, 80% Ethanol 1 for 3 min, 80% Ethanol 2 for 3 min, 70% Ethanol 1 for 3 min, 70% Ethanol 2 for 3 min, and then washed three times with distilled H2O. (1 and 2 mean that the tissues were treated 2 times with the same alcohol, one after the another, in two different tanks.) Tissue was then heated in Citric acid, pH 5,5 in a water-bath at 99.9° C. for 20 min, placed in Tris/NaCl (Tris, 0.6 g/l and NaCl 8.1 g/l, pH 7.4) for 5 min, block with 0.5% BSA in PBS for 60 min, and then washed three times with Tris/NaCl (Tris, 0.6 g/l and NaCl 8.1 g/l, pH 7.4). Primary antibody (150 μl per microscope slide) was added, or a negative control biotinylated isotype matched control human antibody (Chrompure IgG, Dianova, Germany) or a positive controlanti-cytokeratin antibody, and incubated for 30 min in a humidified chamber at 37° C. Tissue was washed three times with Tris/NaCl (Tris, 0.6 g/l and NaCl 8.1 g/l, pH 7.4). Secondary antibody: (150 […]) was subsequently added and incubated for 30 min in a humidified chamber at room temperature (for biotinylated antibodies: NeurtrAvidin 1:100 in PBS), washed three times with Tris/NaCl (Tris, 0.6 g/l and NaCl 8.1 g/l, pH7.4), placed in PBS for 10 min. Tiusse was subsequently incubated with diaminobenzidine (0.05%)-hydrogen peroxide (0.02%) (150 μl per microscope slide) (Sigma, Taufkirchen, München, Germany) for 10 min, washed three times with H2O, washed once with distilled H2O, incubated with hematoxylin/eosin for 5 min, and placed under running tap water 10-15 min. Tissue was then washed again with distilled H2O, and the slides covered with Aquatex (Merck Bioscience).

Malignant Tissues: Colon = assay: as above; type: binding, human; conditions: positive/negative
Protocol: as §1, §2

[2] = tested on: Malignant Tissues: Esophagus; assay: as above; type: binding, human; conditions: positive/negative
Protocol: as §1, §2

Malignant Tissues: Lung = assay: as above; type: binding, human; conditions: positive/negative
Protocol: as §1, §2

[3] = tested on: Malignant Tissues: Melanoma; assay: as above; type: binding, human; conditions: Metastases of malignant melanoma, positive/negative
Protocol: as §1, §2

[4] = tested on: Malignant Tissues: Pancreas; assay: as above; type: binding, human; conditions: positive/negative
Protocol: as §1, §2

[5] = tested on: Malignant Tissues: Prostrate; assay: as above; type: binding, human; conditions: Adeno, positive/negative
Protocol: as §1, §2

[6] = tested on: Malignant Tissues: Stomach; assay: as above; type: binding, human; conditions: positive/negative
Protocol: as §1, §2

HEK 293 = assay: FACS analysis of cell surface binding, BARB4 and commercial TAF 15 antibody; conditions: BARB4 100 ug/ml, TAF 15 antibody 25 μg/ml
Protocol: (§3) To further validate BARB4 target protein TAF 15, BARB4 and a commercial TAF 15 antibody (anti-human TAFII p68, Santa Cruz Biotechnology, sc-81121) were analyzed for binding to BxPC-3, HEK 293, A549 and HeLa cell lines. In brief, cells were trypsinized with cell dissociation solution (Sigma C5789), resuspended in complete medium (RPMI 1640, PAA, E15-039, 10% Fetal bovine serum, PAA, A15-151 and 1% Glutamine, PAA, M11-004) and set on 2×10^5/ml. After 30 minutes on ice, cells were dispersed at 1 ml per FACS-tube and washed once with ice-cold PBS by centrifugation with 500 g and 4° C. Staining was done with BARB4 (100 ug/ml) or the commercial TAF 15 (25 μg/ml) IgG antibodies, control IgGs (IgG lambda, or mouse IgG), or without antibody in 200 μl PBS. Cells were incubated with 25 μg/ml antibody in 100 μl for 30 minutes on ice, then washed with ice cold PBS and secondary antibody (anti mouse IgG-FITC, dianova 115-095-008) was applied at a dilution of 1:50 in 200 μl per tube. After another 30 minutes of incubation in the dark, cells were washed twice with PBS and analyzed by FACS. […] BARB4 target protein TAF 15 validation was then analyzed by immunoprecipitation of MKNcell extracts with BARB4 and subsequent Western blotting with either BARB4 or anti-TAF 15 antibodies (Biomol, A300-308A; or Aviva, ARP30111_T100).

HeLa = assay: as above; conditions: BARB4 100 ug/ml, TAF 15 antibody 25 μg/ml
Protocol: as §3

B1: BARB4: human IgG antibody produced by hybridoma DSMZ Deposit No. DSM ACC2876; heavy chain SEQ ID NOs:1, 3, 5, 7, light chain SEQ ID NO:9 (antibody, V domains shown)
VH: QVQLVESGGGVVQPGRSLRLSCAASGFRFTTHGMHWVRQAPGKGLEWVAVISYNGRNKYYADYVNGRFTISRDDSRDTVFLQMNSLRPEDTAMYYCAKVRGDGYGDYGYFDYWGHGTLVSVSS
VL: QSALTQPRSVSGSPGQSVTISCTGTYNYVSWYQQHPGKAPKLMIFDVSRRSSGVPDRFSGSKSGNTASLTISGLQAEDEADYYCCSYGGTYLYVFGTGTTVTVLGQ
binding: FACS binding to the cell surface (HEK 293) | FACS binding to the cell surface (HeLa)
2/0: Barb 4 +/− ([1]; Invasive ductal) | Barb 4 +/− (Malignant Tissues: Colon; Liver Metastasis) | Barb 4 +/− (Malignant Tissues: Lung; Squamous cell) | Barb 4 +/− ([6]; Adeno (intestinal))
5/0: Barb 4 +/− [3]
1/0: Barb 4 +/− ([1]; Lung Metastasis) | Barb 4 +/− ([1]; Lymph Node Metastasis) | Barb 4 +/− (Malignant Tissues: Colon; Adeno) | Barb 4 +/− ([2]; Adeno (Barrett Carcinoma)) | Barb 4 +/− ([2]; Squamous cell) | Barb 4 +/− (Malignant Tissues: Lung; Carcinoid (neuron-endocrine)) | Barb 4 +/− (Malignant Tissues: Lung; Lymph Node Metastasis) | Barb 4 +/− [5] | Barb 4 +/− ([6]; Adeno (Cardio, intestinal))
4/0: Barb 4 +/− ([4]; Lymph Node Metastasis)
0/1: Barb 4 +/− ([4]; Adeno)
